B1: CD22-B13 (peptide)
peptide: RVFEHPELV
B2: CD37-B12 (peptide)
peptide: ILAFVPLYL
B3: CD37-B14 (peptide)
peptide: FLAFVPLDV
B4: CD37-B15 (peptide)
peptide: VLAFVPLGV
B5: TNFRSF13C-B11 (peptide)
peptide: FLFGAPASA
B6: TNFRSF13C-B12 (peptide)
peptide: LLFGAPAGV
B7: TNFRSF13C-B13 (peptide)
peptide: VLFGAPAYL
B8: MS4A1-B42 (peptide)
peptide: YMNSLSLAL
notes: Printed as YMNSLSLAL
B9: MS4A1-B43 (peptide)
peptide: AMNSLSLTV

target: T1, HLA-A*0201 molecule expressed on human T2 cells (human); test: T2 cells (HLA-A*0201), anti-HLA-A2 flow cytometry
T1 construct: also called HLA-A2

Binding result, binds:
B1, B2, B3, B4, B5, B6, B7, B8, B9

Reference: patent publication US20220323561A1 (ENTEROME S A, published 2022)
